Our source for the MFI and Emax of OD450 nm binding value values is patent publication EP4786492A1.

The target of assay [1] is monkey DLL3 on CHO K1-cyno DLL3 cells (cynomolgus monkey DLL3 extracellular segment joined to EpCAM transmembrane and intracellular regions) (cynomolgus monkey). As to the kind of experiment: FACS, CHO K1-cyno DLL3 cells, 0.8 nM antibody. On the technique in general: Flow cytometry measures light scatter and fluorescence of single cells or particles in a stream.
Assay [2] has the same target. Briefly: FACS, CHO K1-cyno DLL3 cells, 100 nM antibody.
The target in assay [3] is human DLL3 endogenously expressed on SHP77 and NCI-H82 cells (human) (UniProt Q9NYJ7). Briefly: FACS SHP77 cells, 0.00128 nM.
The target in assay [4] is monkey DLL3 on CHO K1-cyno DLL3 cells (cynomolgus monkey DLL3 extracellular segment joined to EpCAM transmembrane and intracellular regions) (cynomolgus monkey). Briefly: FACS, CHO K1-cyno DLL3 cells, 0.0064 nM antibody.
The target in assay [5] is human DLL3 endogenously expressed on SHP77 and NCI-H82 cells (human) (UniProt Q9NYJ7). Briefly: FACS SHP77 cells, 0.0064 nM.
For assay [6] the target is unchanged. As to the kind of experiment: FACS SHP77 cells, 20 nM.
The target is the same in assay [7]. Briefly: FACS SHP77 cells, 4 nM.
The target of assay [8] is human DLL4 protein (human) (UniProt Q9NR61). Briefly: ELISA, maximum over 0.1-100 nM. On the technique in general: In an ELISA, binding on a coated surface is turned into a signal by an enzyme label.
For assay [9], the target named is human DLL1 protein (human) (UniProt O00548). As to the kind of experiment: ELISA, maximum over 0.1-100 nM.
Assay [10] concerns the target human DLL3 endogenously expressed on SHP77 and NCI-H82 cells (human) (UniProt Q9NYJ7). Briefly: FACS SHP77 cells, 100 nM.
Assay [11] addresses monkey DLL3 on CHO K1-cyno DLL3 cells (cynomolgus monkey DLL3 extracellular segment joined to EpCAM transmembrane and intracellular regions) (cynomolgus monkey). Briefly: FACS, CHO K1-cyno DLL3 cells, 20 nM antibody.
Assay [12] shares this target. Briefly: FACS, CHO K1-cyno DLL3 cells, 0.00128 nM antibody.
Assay [13] concerns the target human DLL3 endogenously expressed on SHP77 and NCI-H82 cells (human) (UniProt Q9NYJ7). As to the kind of experiment: FACS SHP77 cells, 0.16 nM.
The target is the same in assay [14]. Briefly: FACS SHP77 cells, 0.032 nM.
Assay [15] addresses monkey DLL3 on CHO K1-cyno DLL3 cells (cynomolgus monkey DLL3 extracellular segment joined to EpCAM transmembrane and intracellular regions) (cynomolgus monkey). Briefly: FACS, CHO K1-cyno DLL3 cells, 0.032 nM antibody.
Assay [16] concerns the target human DLL3 endogenously expressed on SHP77 and NCI-H82 cells (human) (UniProt Q9NYJ7). As to the kind of experiment: FACS SHP77 cells, 0.8 nM.
In assay [17] the target is monkey DLL3 on CHO K1-cyno DLL3 cells (cynomolgus monkey DLL3 extracellular segment joined to EpCAM transmembrane and intracellular regions) (cynomolgus monkey). As to the kind of experiment: FACS, CHO K1-cyno DLL3 cells, 0.16 nM antibody.
Assay [18] shares this target. As to the kind of experiment: FACS, CHO K1-cyno DLL3 cells, 4 nM antibody.

“And” between values parts separate entries of the source, which are not always exact repeats. Equal values may be shown once.

monkey DLL3 on CHO K1-cyno DLL3 cells (cynomolgus monkey DLL3 extracellular segment joined to EpCAM transmembrane and intracellular regions) (cynomolgus monkey), sequence (chain, as listed by the source limits assumed): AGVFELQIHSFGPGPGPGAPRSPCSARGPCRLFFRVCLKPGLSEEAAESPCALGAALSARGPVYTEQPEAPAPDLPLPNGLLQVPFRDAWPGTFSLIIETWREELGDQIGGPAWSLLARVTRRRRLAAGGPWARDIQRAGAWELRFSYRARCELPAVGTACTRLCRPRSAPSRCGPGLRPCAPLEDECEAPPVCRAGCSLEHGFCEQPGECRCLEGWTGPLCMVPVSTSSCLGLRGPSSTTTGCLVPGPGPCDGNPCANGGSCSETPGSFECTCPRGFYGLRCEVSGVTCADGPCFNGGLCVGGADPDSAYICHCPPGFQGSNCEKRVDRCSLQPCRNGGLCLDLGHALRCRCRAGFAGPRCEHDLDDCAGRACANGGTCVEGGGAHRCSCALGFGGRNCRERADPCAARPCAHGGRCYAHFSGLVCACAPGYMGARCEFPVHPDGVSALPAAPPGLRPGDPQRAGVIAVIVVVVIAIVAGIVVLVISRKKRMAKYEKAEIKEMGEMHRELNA
human DLL3 endogenously expressed on SHP77 and NCI-H82 cells (human), sequence (Q9NYJ7 27-618): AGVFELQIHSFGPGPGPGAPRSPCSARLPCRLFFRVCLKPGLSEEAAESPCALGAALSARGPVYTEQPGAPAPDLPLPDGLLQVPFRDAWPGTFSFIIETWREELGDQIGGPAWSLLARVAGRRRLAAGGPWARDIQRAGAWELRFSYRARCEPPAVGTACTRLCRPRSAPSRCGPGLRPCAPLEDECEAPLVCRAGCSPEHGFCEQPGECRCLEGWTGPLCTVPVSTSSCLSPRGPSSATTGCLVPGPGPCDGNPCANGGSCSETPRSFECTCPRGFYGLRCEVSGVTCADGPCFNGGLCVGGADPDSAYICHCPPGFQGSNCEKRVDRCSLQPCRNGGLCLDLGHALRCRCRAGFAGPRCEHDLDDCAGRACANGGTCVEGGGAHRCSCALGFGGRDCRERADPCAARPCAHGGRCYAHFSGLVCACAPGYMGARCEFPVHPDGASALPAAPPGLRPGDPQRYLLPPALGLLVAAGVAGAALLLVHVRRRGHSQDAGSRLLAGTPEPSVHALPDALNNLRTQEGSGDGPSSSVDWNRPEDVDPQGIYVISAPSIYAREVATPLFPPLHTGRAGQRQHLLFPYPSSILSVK
human DLL4 protein (human), sequence (Q9NR61 27-524 limits assumed): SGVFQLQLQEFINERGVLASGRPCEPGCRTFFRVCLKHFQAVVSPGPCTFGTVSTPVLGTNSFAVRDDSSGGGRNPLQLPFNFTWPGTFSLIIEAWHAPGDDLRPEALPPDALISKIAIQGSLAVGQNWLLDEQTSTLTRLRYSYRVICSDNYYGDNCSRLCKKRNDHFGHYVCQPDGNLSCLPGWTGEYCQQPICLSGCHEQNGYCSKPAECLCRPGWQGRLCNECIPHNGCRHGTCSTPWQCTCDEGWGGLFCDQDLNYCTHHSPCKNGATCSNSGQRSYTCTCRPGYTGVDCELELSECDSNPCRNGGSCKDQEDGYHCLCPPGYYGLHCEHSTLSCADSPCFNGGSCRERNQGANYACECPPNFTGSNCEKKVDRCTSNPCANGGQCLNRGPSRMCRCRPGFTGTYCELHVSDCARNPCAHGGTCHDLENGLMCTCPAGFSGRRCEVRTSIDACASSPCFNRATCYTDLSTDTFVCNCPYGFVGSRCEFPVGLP
human DLL1 protein (human), sequence (O00548 18-540 limits assumed): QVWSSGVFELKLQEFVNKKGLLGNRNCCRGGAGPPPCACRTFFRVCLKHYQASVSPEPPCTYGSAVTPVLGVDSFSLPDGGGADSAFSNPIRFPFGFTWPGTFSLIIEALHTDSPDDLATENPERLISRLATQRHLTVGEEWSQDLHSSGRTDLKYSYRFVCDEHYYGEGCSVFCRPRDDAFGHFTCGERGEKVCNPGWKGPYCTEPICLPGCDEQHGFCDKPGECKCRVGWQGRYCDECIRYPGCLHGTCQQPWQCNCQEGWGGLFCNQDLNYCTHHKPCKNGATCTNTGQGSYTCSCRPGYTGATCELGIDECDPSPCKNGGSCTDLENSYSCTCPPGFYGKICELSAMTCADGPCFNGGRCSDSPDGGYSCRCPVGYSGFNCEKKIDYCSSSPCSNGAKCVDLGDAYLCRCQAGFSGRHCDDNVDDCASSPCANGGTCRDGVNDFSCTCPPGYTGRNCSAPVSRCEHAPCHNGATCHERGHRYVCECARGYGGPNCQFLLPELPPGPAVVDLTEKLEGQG

For the substance SC16.56 (antibody), the MFI in assay [1] is 4510 MFI and 1900 MFI; in assay [2] it was 4930 MFI and 2330 MFI; in assay [3] it was 188 MFI and 146 MFI; in assay [4], 314 MFI and 189 MFI; in assay [5], 235 MFI and 146 MFI; in assay [6], 500 MFI and 566 MFI. Further, the MFI in assay [7] is 476 MFI and 517 MFI; in [10] it was 529 MFI and 628 MFI; in assay [11] it was 5010 MFI and 2630 MFI; in assay [12], 161 MFI and 185 MFI; in assay [13], 432 MFI and 411 MFI; in assay [14], 334 MFI and 234 MFI. In addition, the MFI in assay [15] is 690 MFI and 299 MFI; in assay [16] it was 465 MFI and 478 MFI; in assay [17], 1970 MFI and 700 MFI; in assay [18] it was 5040 MFI and 2330 MFI. Besides, the Emax of OD450 nm binding value in [8] and in assay [9] was 0.05 OD450 each time.
In the case of hIgG1 (antibody), the Emax of OD450 nm binding value is 0.04 OD450 and 0.07 OD450 and 0.05 OD450 in assay [8]; 0.04 OD450 and 0.05 OD450 and 0.07 OD450 in assay [9].
